The text below walks through data of US7700571 (Genentech, dated 2010).

Assay [1] addresses Flt-1 on primary mouse liver sinusoidal endothelial cells (LSEC) (mouse) (UniProt P35969). As to the kind of experiment: cell-based or functional assay.
Assay [2] concerns the target T1, KDR (UniProt P35968 20-764, limits assumed).
T1 construct: also called VEGFR-2; KDR receptor
Description: soluble radio-immuno receptor-binding assay (RIA).

Assay [3] deals with T2, Flt-1 on primary mouse liver sinusoidal endothelial cells (LSEC) (mouse, UniProt P35969 23-1333).
T2 sequence (looked up): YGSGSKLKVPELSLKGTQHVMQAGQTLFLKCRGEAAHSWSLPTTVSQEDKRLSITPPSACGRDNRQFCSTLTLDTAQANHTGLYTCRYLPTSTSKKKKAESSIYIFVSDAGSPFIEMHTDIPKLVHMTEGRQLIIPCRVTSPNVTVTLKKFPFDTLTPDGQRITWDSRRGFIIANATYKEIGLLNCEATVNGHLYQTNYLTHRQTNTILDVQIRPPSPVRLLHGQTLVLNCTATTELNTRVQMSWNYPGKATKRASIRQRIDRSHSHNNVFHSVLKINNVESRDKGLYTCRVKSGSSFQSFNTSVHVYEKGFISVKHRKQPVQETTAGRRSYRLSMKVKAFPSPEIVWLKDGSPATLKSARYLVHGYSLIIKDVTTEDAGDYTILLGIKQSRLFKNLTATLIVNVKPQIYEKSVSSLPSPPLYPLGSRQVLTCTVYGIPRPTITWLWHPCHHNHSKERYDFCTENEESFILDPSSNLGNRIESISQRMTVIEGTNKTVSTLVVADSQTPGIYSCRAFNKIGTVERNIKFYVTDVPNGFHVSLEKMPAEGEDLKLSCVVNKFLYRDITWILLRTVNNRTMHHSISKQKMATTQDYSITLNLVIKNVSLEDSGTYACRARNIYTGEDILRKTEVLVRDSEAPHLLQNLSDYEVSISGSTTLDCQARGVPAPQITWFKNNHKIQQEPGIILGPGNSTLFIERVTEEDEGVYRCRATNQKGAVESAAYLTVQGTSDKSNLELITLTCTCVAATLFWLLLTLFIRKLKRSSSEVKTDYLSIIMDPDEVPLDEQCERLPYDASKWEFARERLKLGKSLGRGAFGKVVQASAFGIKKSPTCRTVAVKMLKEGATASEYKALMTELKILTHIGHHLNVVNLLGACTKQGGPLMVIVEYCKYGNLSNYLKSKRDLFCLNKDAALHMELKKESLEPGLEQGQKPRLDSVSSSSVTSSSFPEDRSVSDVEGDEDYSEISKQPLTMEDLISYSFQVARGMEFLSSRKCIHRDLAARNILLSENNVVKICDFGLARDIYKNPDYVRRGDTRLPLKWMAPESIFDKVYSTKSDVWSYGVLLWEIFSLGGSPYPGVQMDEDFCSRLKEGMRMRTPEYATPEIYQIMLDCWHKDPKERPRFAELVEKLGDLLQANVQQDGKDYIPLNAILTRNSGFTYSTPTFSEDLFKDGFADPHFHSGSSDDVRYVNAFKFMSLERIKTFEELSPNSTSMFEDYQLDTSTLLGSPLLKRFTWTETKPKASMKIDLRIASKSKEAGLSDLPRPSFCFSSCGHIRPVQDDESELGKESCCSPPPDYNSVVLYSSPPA
As to the kind of experiment: cell-based or functional assay.

In assay [4] the target is T1, KDR. Description: soluble radio-immuno receptor-binding assay (RIA); target KDR.
The next assay deals with T3, Flt-1 (UniProt P17948 27-758, limits assumed).
T3 construct: also called VEGFR-1; Flt-1 receptor
T3 sequence (P17948 27-758 limits assumed): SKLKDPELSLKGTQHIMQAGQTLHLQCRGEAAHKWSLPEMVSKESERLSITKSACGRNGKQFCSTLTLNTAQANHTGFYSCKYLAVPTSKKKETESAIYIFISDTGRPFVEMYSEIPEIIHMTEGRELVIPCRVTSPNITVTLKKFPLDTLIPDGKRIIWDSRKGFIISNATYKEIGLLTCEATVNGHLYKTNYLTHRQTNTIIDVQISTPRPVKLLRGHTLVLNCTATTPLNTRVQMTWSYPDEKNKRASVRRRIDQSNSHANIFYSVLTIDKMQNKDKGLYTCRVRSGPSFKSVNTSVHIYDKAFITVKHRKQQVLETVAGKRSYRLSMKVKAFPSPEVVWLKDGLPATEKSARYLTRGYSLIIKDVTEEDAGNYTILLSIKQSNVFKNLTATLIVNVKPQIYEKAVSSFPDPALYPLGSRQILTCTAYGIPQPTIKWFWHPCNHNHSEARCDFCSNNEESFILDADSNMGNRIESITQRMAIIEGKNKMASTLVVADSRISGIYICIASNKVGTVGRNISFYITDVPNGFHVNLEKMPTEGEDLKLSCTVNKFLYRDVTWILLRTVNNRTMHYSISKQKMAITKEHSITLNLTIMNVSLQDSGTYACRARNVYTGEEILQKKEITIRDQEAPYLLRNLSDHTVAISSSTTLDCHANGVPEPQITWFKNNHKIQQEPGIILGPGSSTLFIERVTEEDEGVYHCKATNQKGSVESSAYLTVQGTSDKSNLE
Description: soluble radio-immuno receptor-binding assay (RIA); target Flt-1.

T1 sequence (P35968 20-764 limits assumed): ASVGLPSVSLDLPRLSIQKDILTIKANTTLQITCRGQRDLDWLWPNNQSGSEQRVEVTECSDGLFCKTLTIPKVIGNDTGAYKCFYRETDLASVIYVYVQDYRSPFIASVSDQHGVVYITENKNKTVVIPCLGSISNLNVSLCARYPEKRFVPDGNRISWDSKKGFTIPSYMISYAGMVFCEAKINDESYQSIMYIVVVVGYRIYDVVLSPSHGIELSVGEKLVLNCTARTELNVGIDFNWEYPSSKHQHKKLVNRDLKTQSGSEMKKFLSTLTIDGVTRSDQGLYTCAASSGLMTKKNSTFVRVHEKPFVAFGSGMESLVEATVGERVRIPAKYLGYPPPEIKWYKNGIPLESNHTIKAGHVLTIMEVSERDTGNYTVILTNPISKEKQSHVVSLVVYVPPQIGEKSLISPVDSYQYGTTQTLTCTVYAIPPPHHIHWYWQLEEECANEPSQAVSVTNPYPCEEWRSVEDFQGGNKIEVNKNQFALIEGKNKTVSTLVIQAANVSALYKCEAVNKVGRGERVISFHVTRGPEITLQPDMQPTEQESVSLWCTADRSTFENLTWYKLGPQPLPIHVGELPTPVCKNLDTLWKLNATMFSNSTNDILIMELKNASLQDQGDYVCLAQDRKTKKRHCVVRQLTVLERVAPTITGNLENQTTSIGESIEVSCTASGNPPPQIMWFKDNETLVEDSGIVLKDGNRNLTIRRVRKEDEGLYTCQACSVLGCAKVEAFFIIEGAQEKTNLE

Turning to “recombinant human VEGF (from UniProt P15692 181-395) (ligand)”, in assay [1], the induction of HGF mRNA in LSEC (Taqman RT-PCR, 10 ng/ml, 24 h) is 5.5 fold and the induction of IL-6 mRNA in LSEC (Taqman RT-PCR, 10 ng/ml, 24 h) was found to be 3.3 fold.

B1: Flt-sel variant I43A/I46A/Q79A/I83A (ligand)
chain: APMAEGGGQNHHEVVKFMDVYQRSYCHPIETLVDIFQEYPDEAEYAFKPSCVPLMRCGGCCNDEGLECVPTEESNITMAIMRAKPHQGQHIGEMSFLQHNKCECRPKKDRARQENPCGPCSERRKHLFVQDPQTCKCSCKNTDSRCKARQLELNERTCRCDKPRR
notes: VEGF variant with four alanine substitutions, numbered on native VEGF; also called Fit-sel; FIt-sel
Consider B1, for which the “fold reduction of KDR-binding affinity against native VEGF(8-109)” value in the assay with KDR [2] is no less than 470 fold. Further, in assay [3], the “induction of HGF mRNA in LSEC (Taqman RT-PCR, 10 ng/ml, 24 h)” value came out at 5.5 fold and the “induction of IL-6 mRNA in LSEC (Taqman RT-PCR, 10 ng/ml, 24 h)” value amounted to 3.3 fold.

B2: native VEGF(8-109) (ligand)
chain: GQNHHEVVKFMDVYQRSYCHPIETLVDIFQEYPDEIEYIFKPSCVPLMRCGGCCNDEGLECVPTEESNITMQIMRIKPHQGQHIGEMSFLQHNKCECRPKKD
notes: If that entry includes the signal peptide, 8-109 must be shifted; also called the native protein
For the molecule B2, the equilibrium dissociation constant (Kd) in the assay with KDR [4] is 500 pM; with Flt-1 it was 400 pM.

The Kd is the equilibrium constant for the complex coming apart. High values mean a looser complex, low ones a tighter complex.
